Measurements published in patent US20230340154A1 (Hoffmann-La Roche, published 2023).

Target: T1, murine CD40 (mouse, UniProt P27512 20-289)
T1 construct: Endogenous CD40 on cells in the tumor microenvironment of C57BL/6J mice; also called mouse CD40; muCD40
T1 sequence: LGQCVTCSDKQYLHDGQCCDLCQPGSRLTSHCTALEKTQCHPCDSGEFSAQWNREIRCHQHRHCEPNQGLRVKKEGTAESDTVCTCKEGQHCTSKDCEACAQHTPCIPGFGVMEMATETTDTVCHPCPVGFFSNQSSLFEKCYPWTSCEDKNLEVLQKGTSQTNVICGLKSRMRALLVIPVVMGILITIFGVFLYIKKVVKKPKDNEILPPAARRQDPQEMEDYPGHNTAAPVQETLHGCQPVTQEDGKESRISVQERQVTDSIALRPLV
Experiment: in vivo fluorescence imaging of the Alexa647-labelled antibody in TC-1 tumors (devoid of FAP expression), four days after i.p. injection
Source text: To assess FAP-CD40 antibody access to the TC-1 tumor, we intraperitoneally injected the anti-FAP-CD40 antibody labeled with Alexa647 into TC-1 and mEERL95 tumor-bearing mice that underwent local irradiation. The antibody was detectable in both tumors four days upon administration. No significant difference in the fluorescence intensity was detected in both TC-1 and mEERL95 tumors (FIG. 4H) which present similar CD40 mRNA expression levels (FIG. 4C).

binding result: binds
B1: muCD40 x FAP (28H1) 4+1 bispecific antibody (VH on knob and VL on hole) (P1AD9139) (bispecific antibody)
light: DTVLTQSPALAVSPGERVTISCRASDSVSTLMHWYQQKPGQQPKLLIYLASHLESGVPARFSGSGSGTDFTLTIDPVEADDTATYYCQQSWNDPWTFGGGTKLELKRTVAAPSVFIFPPSDEQLKSGTASVVCLLNNFYPREAKVQWKVDNALQSGNSQESVTEQDSKDSTYSLSSTLTLSKADYEKHKVYACEVTHQGLSSPVTKSFNRGEC
heavy 1: not shown
heavy 2: EVQLVESDGGLVQPGRSLKLPCAASGFTFSDYYMAWVRQAPTKGLEWVASISYDGSSTYYRDSVKGRFTISRDNAKSTLYLQMDSLRSEDTATYYCGRHSSYFDYWGQGVMVTVSSASTKGPSVFPLAPSSKSTSGGTAALGCLVKDYFPEPVTVSWNSGALTSGVHTFPAVLQSSGLYSLSSVVTVPSSSLGTQTYICNVNHKPSNTKVDKKVEPKSCDGGGGSGGGGSEVQLVESDGGLVQPGRSLKLPCAASGFTFSDYYMAWVRQAPTKGLEWVASISYDGSSTYYRDSVKGRFTISRDNAKSTLYLQMDSLRSEDTATYYCGRHSSYFDYWGQGVMVTVSSASTKGPSVFPLAPSSKSTSGGTAALGCLVKDYFPEPVTVSWNSGALTSGVHTFPAVLQSSGLYSLSSVVTVPSSSLGTQTYICNVNHKPSNTKVDKKVEPKSCDKTHTCPPCPAPEAAGGPSVFLFPPKPKDTLMISRTPEVTCVVVDVSHEDPEVKFNWYVDGVEVHNAKTKPREEQYNSTYRVVSVLTVLHQDWLNGKEYKCKVSNKALGAPIEKTISKAKGQPREPQVCTLPPSRDELTKNQVSLSCAVKGFYPSDIAVEWESNGQPENNYKTTPPVLDSDGSFFLVSKLTVDKSRWQQGNVFSCSVMHEALHNHYTQKSLSLSPGGGGGSGGGGSGGGGSGGGGSEIVLTQSPGTLSLSPGERATLSCRASQSVSRSYLAWYQQKPGQAPRLLIIGASTRATGIPDRFSGSGSGTDFTLTISRLEPEDFAVYYCQQGQVIPPTFGQGTKVEIK
notes: Four anti-mouse CD40 (FGK4.5) Fabs, human IgG1 P329G LALA knob-into-hole Fc, and 28H1 VH on the knob chain and VL on the hole chain; That paragraph says only 'anti-FAP-CD40 antibody'; also called FAP-CD40; anti-FAP-CD40
